This data set in a line: label from the status in PepcDB records.
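Also: failed if final PepcDB status was selected cloned or expressed and not failed if soluble or beyond.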

“MFTFLMTVRTSRRVAFHSGKLPVVIGIVSFFAPLFSLSFLNLFTDNIDPHYMSLDKALAERTVIVITQSQILLPSTTYILLELKIINSELGRLALSASAINDMLGIFAMIVATTQATYIHVSHAIAYRDLVAVIIFFLIVFFVFKPMVQWIIDRTPEDKPVEDIYIHAVILTAFASAAYFVFFNMKYVLGPLIIGIIIPEGPPLGSALEAKFERLTMNVFLPISITFSAMRCDGLRILSQFTDIYFNIFLTLLILVIKLVACLTLCLYYKLPRSESLAVSLILSYKSFVEFVLYEAVLEEKFISQATYAFLILYSLLSAGIVPMVVRSMYDPKRKYVNYQKRDILHLEANSGLRILTCLHKPENVSETIAFLQLFSSPIHDFPIAVTVLHLVKLVGQINPIIVSHDKKLKRLHKNSYIHTANLAFRQFMQESLESVTVTTFTAFSHENLMHEDICTLALDRTTSMIVVPSGRKWTVDGMFESDDLAARQLNQSLLDRAPCSIGILVDRGQFSRKSYVTSKNRYNIDVGVLFIGGKDDREALSLVKRMKYNPRVRVTVIRLIFDHEIESEWDYILDNEGLKDLKSTESNEDILYTERIVTSVVEVVKAVQLLAEEYDLMVVGRDHDMTSQDLSGLTEWVELPELGVIGDLLAARDLNSKVSVLVVQQQQQQT”: the protein production result is reported as “failed”.
Regarding “MFTQRKKWLSGVAAGLLMAASVSASAEEKILHIYNWSDYIAPDTLANFQKETGIKVVYDVFDSNEVLEGKLMAGSTGFDLVVPSASFLERQLSAGVFKPLDKSKLPNEKNLDPELLALVSKHDPDNKYAIPYLWATTGIGYNVEKVKAVLGEDAPVNSWDLVLKPENLEKLKSCGVSFLDAPSEIFATVLNYLGKDPNSTLTADYTGSATDLLLKLRPNIRYFHSSQYINDLANGDICVAVGWAGDIMQASNRAKEAKNGVNVAYSIPKEGALAFFDVFAMPTDAKNQDEAYQFLNYLMRPDVIANISNHVFYANANQAATPLVNAEVRDNPGIYPPADVRAKMFTLKVQDPKIDRVITRAWTKVKSGK”, the protein production result is reported as “failed”.
Take “MFTTVITPRVSETDGVGHINNTTVPVWFEAGRHEIFKLFTPDLSFKRWRMVIIRMEVDYVNQMYYGQDVTVYTGIERIGNTSLTIYEEIHQNGVVCAKGRSVYVNFNFDTGRPEPIPDDIRVKLREHVWQPGE”: the protein production entry was “not failed”.
The entry for “MFVEVFIVGLLAGMSPGPDFFIVMKNSLGFGARVGILTSLGIASALIVHITYTVLGFAFLIETYPALFFTIQLLGAAYLIWLGFHAIRSSPPKKEEAEIEETQPIQSTKDSKSSIQGFKEGFITNLLNPKAALFFLSIFSQFITPQTADWVRWMYGLEVVVAVGLWFSFLAIFISYKHFRRFYQTHSYWFDRFLGAALLFFAIRIIIGAF” is “failed”.
The same measure for “MFVRRFEEVLALPTAMTALLGCQLLGELIVRALHLPIPGPVLGLLLLLAWLLLGTTVTLPVSSSLPEVARGLLNHMSLLFIPAGVGIILHGQTLADQWLPISVSLFGSTALALIATALTFRAVCKIMERSKAKKEGGR”: “failed”; for “MFVYAYILMLLLTVLMCINLFIDSFKCPVKIRRILRGLVFLIMLRYVTLLIMCLKKSITYIYFMRPIVLLDILYIPLVILIMIFVFTRSAKFNFVYAAISGIIFFSLYIFLNFKILKTANPFYSYSFGYLIDLKSYSVVVAVVKVMVLILMLMLCGYFLRKSNIRRAGFCFLMIVILVMLVENISIIIMPKVMPEYLFGEVLLLICLNYMVRLFKK”: “failed”; for “MFYGRYDYPTGKFLWGNLRYQRVSEYNLQTFLNMKNSKLREEQIMSAKRDYYEVLGVSRDADKNTIKKAYRKLAKKYHPDTNQGNAQAAERFKEATEAYNILSDPEKKKMYDQFGHAAFDGSGAAGGAYGGAYSRNGGGTYQYAGPDGTFHEYHFEGNGDMDDFLKNIFGGSFGGFGGATRSSSKGSRSGFSGSGFGRSGFGGTGFSGSGFGGSGFSGSGFGESGSYGNYSQGGADVTAEITVGFDEAAFGCEKVIHLTENNGKAVGKALKVKIPAGIDTGKSIRLRGKGNPGINGGKAGDLLLKVKVASKPGYERKGMDVYTTVRVPFTTAVLGGEAKVETLHGNVLCKINPGTQSGTKIRLRGKGIVSMKDKNQHGDQYVTVQIDVPGNLSEEAKRKLREFEVACKKGQQGVA”: “failed”.
The same measure for “MFYKEENFKKTEIGEIPEDWEIVELKDVCKKIKAGGTPKTSVEEYYKNGTIPFVKIEDITNSNKYLTNTKIKITEEGLNNSNAWIVPKNSVLFAMYGSIGETAINKIEVATNQAILGIIPKDNILESEFLYYILAKNKNYYSKLGMQTTQKNLNAQIVKSFKIPLPPLEEQKQIAKILTKIDEGIEIIEKSINKLERIKKGLMHKLLTKGIGHSRFKKSEIGEIPEDWEVFEIKDIFEVKTGTTPSTKKSEYWENGEINWITPLDLSRLNEKIYIGSSERKVTKIALEKCNLNLIPKGSIIISTRAPVGYVAVLTVESTFNQGCKGLFQKNNDSVNTEFYAYYLKFKKNLLENLSGGSTFKELSKSMLENFKIPLPPLEEQKQIAKILSSVDKSIELKKQKKEKLQRMKKKIMELLLTGKVRVKT”: “not failed”; for “MFYTIEELVQQADRDYQGNIAELMIATETELSGRDRSEILELMTRNLEVMKDSVQTGLSPEKSPTGLTGGDAAKLDAYIKRGKTLADSAVLGAARNAMAVNESNAKMGLVCATPTAGSAGCLPAVLTVAIEKLGLNESQQLDFLFTAGAFGLVIANKASISGAEGGCQAEVGSASAMAAAAITMAAGGTPFQASQAICFVLKNMLGLICDPVAGLVEVPCVKRNAMGASFALVAADMALAGITSAIPVDQVVDAMYQVGSAMPTAFRETAEGGLAATPKGKALAKEIFG”: “not failed”.
For the sequence “MGAASCEDEELEFKLVFGEEKEAPPLGAGGLGEELDSEDAPPCCRLALGEPPPYGAAPIGIPRPPPPRPGMHSPPPRPAPSPGTWESQPARSVRLGGPGGGAGGAGGGRVLECPSIRITSISPTPEPPAALEDNPDAWGDGSPRDYPPPEGFGGYREAGAQGGGAFFSPSPGSSSLSSWSFFSDASDEAALYAACDEVESELNEAASRFGLGSPLPSPRASPRPWTPEDPWSLYGPSPGGRGPEDSWLLLSAPGPTPASPRPASPCGKRRYSSSGTPSSASPALSRRGSLGEEGSEPPPPPPLPLARDPGSPGPFDYVGAPPAESIPQKTRRTSSEQAVALPRSEEPASCNGKLPLGAEESVAPPGGSRKEVAGMDYLAVPSPLAWSKARIGGHSPIFRTSALPPLDWPLPSQYEQLELRIEVQPRAHHRAHYETEGSRGAVKAAPGGHPVVKLLGYSEKPLTLQMFIGTADERNLRPHAFYQVHRITGKMVATASYEAVVSGTKVLEMTLLPENNMAANIDCAGILKLRNSDIELRKGETDIGRKNTRVRLVFRVHVPQGGGKVVSVQAASVPIECSQRSAQELPQVEAYSPSACSVRGGEELVLTGSNFLPDSKVVFIERGPDGKLQWEEEATVNRLQSNEVTLTLTVPEYSNKRVSRPVQVYFYVSNGRRKRSPTQSFRFLPVICKEEPLPDSSLRGFPSASATPFGTDMDFSPPRPPYPSYPHEDPACETPYLSEGFGYGMPPLYPQTGPPPSYRPGLRMFPETRGTT”, the protein production entry was “not failed”.
The entry for “MGAATRVAPMTAAASSTKAWLMAARPQTLPAGAAPVIVGTGLAVYHGVFAPLPALFALFGALLLQIGTNFANDYYDAVRGADTEDRDGFTRVTAGGLIEPAAVKRAMYATFGLSMVIGLYLVAVGGVPILVVGLASIVAGITYSGGPLPYGYRGLGDLFVFVFFGLVAVAGTYYVQAAAHGGWFPLWIPEGTLPAAAVVAGLPAAGFSTAILVVNNIRDRETDAEAGKHTLAVILGYRLSRIEWSLMAGLGYAIPVVFWLDGYPATVLLPLVTAPLAIAIGRTVWNRTDGEALNPALQRTGKLLFAHSVCFALGFAAPAVI” is “failed”.
The entry for “MGALLPRGQASRPRTRHGRSPQNDRRQEARDVTGRHLAMVQRPGKMARWVLCCECLRRPMDLTLRLATALLTASLLLPLRPAQAQLAGHGGPVRAIAVSSDGKTVLSGSFDTAAIRWSLATESAEQVLRFHSGAVNAAAFLGDGRMATAGADGQIAIWTAGGLQPDQVLEGHTGPIVGLVVSPDTSKLASASWDHTVRISSLSDGGTRVLQGHSQSVNGVAFAPDGKSLVSVGYDLTVRIWPLAGGSPEIVVMPAPLNAVAISPDGEIVTGAADGKLRMMTADGKENGEVMAGARPIVALAISQDGALIATGAIDGTVAIVDRKARSVMRTLAGLGAPVWSVAFLPDGATLLTGGADGKIRRWNALTGAAIGSNVLGTPADPLAAYVGDHGAEMFRACVACHTLSENEVQRAGPTLAGLFGRKIASLPGYRFTDALKAMDIVWTPETVSKLFEIGPNAYTPGTKMPEQRIGSAEDRRALTDFLARATSK” is “failed”; for “MGALRGRWAEEEALRFLLGKGYRLLWRNRRTPFGEVDLFMEKDGVYVVVEVKQRASARFGAPLEAITPGKVRRLLQSARFLLGRDDLPVRLEAVLVHGTPKDFRLEHLVLEL” it is “failed”.
The same measure for “MGDPFGGRFGGFRGSLFGGRDPFDDPFFSRPFEDLLEPSNTFSSGASFSNAHKNNGGRGLTIEELPSDEEVEERKDIGIDDQEHASSVNKPSVEHPEDDSDAERKIQNVNQRSDFNRREGTQSRANTFRHHISKVTYGGIHGAYYTSTRTRRKDGDGMVVEESKEADKTTGEATHRISRGINDKVIDYTVDGHSVTRKLNSSGGVESTQTLHNLDEGPAESTQPYHNLKFFERKLAGF”: “failed”; for “MGDVVEMTSELGFKYSILASGSTGNSFYLETPEKKILVDAGLSGKKITSLLAEIDRDPSDLDAILVTHEHKDHIHGVGVLARKYGMDIYANEKTWQIMDSKNMLGKVDNSQKHIFSRGKLLTFGDIDIESFGVSHDAINPQFYRFMKDGKSFVMLTDTGYVSDRMAGLIENADGYLIESNHDIEILRAGSYPWSTKQRILSDQGHLCNEDGADAMIRTIGNKTKKIYLGHLSKENNIKELAYMTMENQLARADFGVGTDFKIFVTSPDTATPLTDILEHHHHHH”: “not failed”.
For “MGDWSKLPEELLGLIALRLYSVIELIRFRSICKSWRSSASGVNKNHSLSSPLIYFKPLQIILARAQANGQILSKYHGTVLSRATFFRVTLASSPDQGWLIKSDTDLKYRNFHLLNCLSRKALGRSRKLISLSEFIVSEIQESYAVVGRRTRETASEFKRVFLVRVQGGDHRVLVIGIDGKIRFWKGGIWNGIKKQVAQFSDFVLDEGLTYAVDTKGIMWWISSAYDIIRYGTKLHENITNGSCGEKRFVRCRGELYIVDRLIDENLLKRKADSYDDNAIVHFRNADYTNADLWEDGNGNDDFFAAQAHRFIHVLHDNLGNVSCKPFERDPPKTIGFKVYKNDEELLKWVEVKSLGDKAIVIATDACFSVSAHEFYGCLPNSIYFTDKKEEEVKVFKLDDGSITTMSESEQSCFQMFVPSFL”, the protein production entry is given as “not failed”.
The same measure for “MGEDRRSLRVDYDDNFLRNNICSLKVSFIKQQGGAEGVKRLYADLGLALVALIWGSTFPVVKIALDSMSPFAFNTVRFFIACLFFLPFLKGWDFKDGFKIGIASFLGYTFQTVGLDYTTATNAGFITSTYVVLAPIISWLVYKDVFDKRDVSGVLLAFVGFYFLSGYSGFNIGDILMLFCALFFGAEIAMISHYSRLSNPTMLAFWQSFAIFILSAPFAVFTTTKFEINTTVILCLLITAFFATFVAKMLQNWLQSYTKSSDAAVILSLEGVFAHLFSVAVLAEILTPVQYFGAFLILLAVIIVSLRV”: “failed”.
